Measurements as given in US20180237497A1 (CANCER RESEARCH TECHNOLOGY, published 2018).

Columns and labels:
[1] = target: T1, human IGF2^1-67 (mature insulin-like growth factor 2) (human, UniProt P01344 25-91, biotinylated (site not stated) where immobilised on the chip (Tables 1-4)); assay: SPR kinetic, biotin-IGF2 on chip
T1 construct: mature; also called mature IGF2; biotinylated IGF2
Description: (§1) Final kinetic analysis of mutants by SPR was conducted using a Biacore T200 biosensor at 25° C. in either HBS-EP (10 mM HEPES pH 7.4, 150 mM NaCl, 3 mM EDTA, and 0.005% (v/v) surfactant P20) or MES-EP (20 mM MES pH 6.5, 150 mM NaCl, 3 mM EDTA, and 0.005% (v/v) surfactant P20) at a flow-rate of 40 μL min⁻¹. […] For the analysis of the Fc-domain 11^AB5 interaction, approximately 50 RU of a biotinylated IGF2:biotinylated ubiquitin mixture (1:8 proportion) was immobilized on the CM5-streptavidin chip. This interaction was also analysed by immobilizing the Fc-domain 11^AB5 and Fc-domain 11^AB5-RHH (or Fc-domain 11^I1572A as control) by Human Antibody Capture (monoclonal mouse anti-human IgG antibody immobilised on a CM5 chip by amine coupling, GE Healthcare) with and without human IgG1 Fc fragment (Bethyl Laboratories, UK) in the control flow cell. […] T200 BiaEvaluation software (GE Healthcare) was used to fit the resulting curves according to a 1:1 binding model. Steady state affinities were determined using the kinetic data, taking the response average at 5 seconds before injection end and for 5 seconds average. Thermodynamic data was performed across the temperature range of 10° C. to 30° C., van't Hoff and Erying plots generated and ΔH, −TΔS and ΔG values determined as previously described.

[2] = target: T1, human IGF2^1-67 (mature insulin-like …); assay: SPR steady state, biotin-IGF2 on chip
Description: as §1

[3] = target: T1, human IGF2^1-67 (mature insulin-like …); assay: SPR kinetic, biotin-IGF2 on chip, pH 7.4
Excerpt: (§2) Surface plasmon resonance (SPR) binding analysis of recombinant M6P/IGF2R domain 11 mutants interaction with IGF2. Kon indicates association (on) rate; koff, dissociation (off) rate; RU, response units. Binding to IGF2 assessed with BIAcore T200 using purified biotinylated IGF2 and IGF1 on a streptavidin biosensor chip. Recombinant proteins were expressed either in E. coli and/or P. pastoris. All the mutants in the FG and CD loops are on the domain 11^AB5 background for the AB loop unless otherwise stated. All experiments were carried out at 25° C. in HBS-EP buffer (pH 7.4), were repeated 2-5 times on two independent BIAcore chips. nd=not determined. Data for KD expressed as mean of each experiment, and means of kon and koff are shown.
as §1, with “average.” for “average. Thermodynamic data was performed across the temperature range of 10° C. to 30° C., van't Hoff and Erying plots generated and ΔH, −TΔS and ΔG values determined as previously described.”

[4] = target: T1, human IGF2^1-67 (mature insulin-like …); assay: SPR kinetic, biotin-IGF2 on chip, pH 6.5
Description: Measurements were carried out at 25° C. in MES-EP buffer, 20 mM MES pH 6.5, 150 mM NaCl, 3 mM EDTA, and 0.005% (v/v) surfactant P20). Data for KD expressed as mean of each experiment, and means of kon and koff are shown.
as §1

[5] = target: T1, human IGF2^1-67 (mature insulin-like …); assay: SPR steady state, biotin-IGF2 on chip, pH 7.4
Excerpt: as §2
as §1, with “average.” for “average. Thermodynamic data was performed across the temperature range of 10° C. to 30° C., van't Hoff and Erying plots generated and ΔH, −TΔS and ΔG values determined as previously described.”

[6] = target: T1, human IGF2^1-67 (mature insulin-like …); assay: SPR
Excerpt: as §2
as §1, with “model.” for “model. Steady state affinities were determined using the kinetic data, taking the response average at 5 seconds before injection end and for 5 seconds average. Thermodynamic data was performed across the temperature range of 10° C. to 30° C., van't Hoff and Erying plots generated and ΔH, −TΔS and ΔG values determined as previously described.”

[7] = target: T1, human IGF2^1-67 (mature insulin-like …); assay: SPR (Biacore T200, 25 °C, HBS-EP pH 7.4); ΔΔG° = RT ln(KD mutant / KD domain 11^AB3); box AB+FG
Description: Boxes show the change in the binding free energy contribution, ΔΔGº, for the indicated mutants. The loop/s that contains the mutation/s is indicated in each box. The ΔΔGº values were calculated as ΔΔGº=ΔGº domain 11^mutant−ΔGº domain 11^AB3=RTln(KD domain 11^mutant/KD domain 11^AB3). Additive and non-additive contributions of single point mutations are shown when calculated with a box solid line and dashed line, respectively.
as §1, with “average.” for “average. Thermodynamic data was performed across the temperature range of 10° C. to 30° C., van't Hoff and Erying plots generated and ΔH, −TΔS and ΔG values determined as previously described.”

[8] = target: T1, human IGF2^1-67 (mature insulin-like …); assay: SPR kinetic, biotin-IGF2 on chip, pH 7.4; remark: listed apart in the source
Description: as §1

[9] = target: T1, human IGF2^1-67 (mature insulin-like …); assay: SPR steady state, biotin-IGF2 on chip, pH 7.4; remark: listed apart in the source
Description: as §1

[10] = target: T1, human IGF2^1-67 (mature insulin-like …); assay: SPR kinetic, Fc fusion captured by anti-human IgG, pH 7.4
Description: (§3) SPR analysis of the interaction of recombinant IGF1 and IGF2 forms with Fc-domain 11 proteins immobilised by antibody capture (CM5 chip containing monoclonal mouse anti-human IgG antibody immobilised by amine coupling). Measurements were carried out at 25° C. in HBS-EP buffer (pH 7.4).
as §1

pro-IGF2^1-104 = pro-IGF2^1-104 (UniProt P01344 25-128); assay: as above
Sequence of pro-IGF2^1-104 (P01344 25-128 limits assumed): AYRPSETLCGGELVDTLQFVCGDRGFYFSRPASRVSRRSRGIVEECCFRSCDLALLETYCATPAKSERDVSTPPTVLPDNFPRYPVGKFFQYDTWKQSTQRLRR
Description: as §3, §1

pro-IGF2^1-156 = target: T2, pro-IGF2^1-156 (UniProt P01344 25-180); assay: as above
T2 construct: range 1-156
T2 sequence (P01344 25-180 limits assumed): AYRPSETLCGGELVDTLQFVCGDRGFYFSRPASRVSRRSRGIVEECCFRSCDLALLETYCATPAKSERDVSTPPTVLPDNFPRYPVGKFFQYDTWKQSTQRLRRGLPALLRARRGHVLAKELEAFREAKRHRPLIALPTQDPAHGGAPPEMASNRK
Description: as §3, §1

T1 sequence (P01344 25-91): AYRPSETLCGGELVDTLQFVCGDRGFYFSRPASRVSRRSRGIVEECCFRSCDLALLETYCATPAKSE

| Kd [1] [nM] | koff [1] [s⁻¹] | kon [1] [M⁻¹ s⁻¹] | Kd [2] [nM] | Kd [3] [nM] | koff [3] [s⁻¹] | kon [3] [M⁻¹ s⁻¹] | Kd [5] [nM] | ΔΔG [7] [kcal/mol] | Binder | further results |
| --- | --- | --- | --- | --- | --- | --- | --- | --- | --- | --- |
|  |  |  |  | 2.73 | 0.0121 | 4.66e+06 | 4.54 | -1.02 | domain 11^AB5 G1603K (receptor, See m5) MKSNEHDDCQVTNPSTGHLFDLSSLSGRAGFTAAYAKGWGVYMSICGENENCPPGVGACFGQTRISVGKANKRLRYVDQVLQLVYKDGSPCPSKSKLSYKSVISFVCRPEAGPTNRPMLISLDKQTCTLFFSWHTPLACEQATECSV | fold improvement of affinity [6]: ≤ 2 fold |
|  |  |  |  | 3.19 | 0.0112 | 3.61e+06 | 5.44 | -0.93 | domain 11^AB5 S1602H (receptor, See m5) MKSNEHDDCQVTNPSTGHLFDLSSLSGRAGFTAAYAKGWGVYMSICGENENCPPGVGACFGQTRISVGKANKRLRYVDQVLQLVYKDGSPCPSKHGLSYKSVISFVCRPEAGPTNRPMLISLDKQTCTLFFSWHTPLACEQATECSV | fold improvement of affinity [6]: ≤ 2 fold |
| 119 | 0.15 | 1.07e+06 | 135 |  |  |  |  |  | domain 11^WT + 312G (HI-VKLM) (receptor, See m5; Protein quality poor) MKSNEHDDCQVTNPSTGHLFDLSSLSGRAGFTAAYSEKGLVYMSICGENENCPPGVGACFGQTRISVGKANKRLRYVDQVLQLVYKDGSPCPSKSGLSYKSVISFVCRPEAGPTNRPMLISLVKLMCTLFFSWHTPLACEQATECSV |  |
| 15.3 | 0.044 | 2.76e+06 | 15.5 | 15.3 | 0.044 | 2.76e+06 | 15.5 |  | IGF2R domain 11^AB3 (receptor, His6-tagged soluble domain 11; also called domain 11^E1544K, K1545S, L1547V; 1542YSKSGV1547) MKSNEHDDCQVTNPSTGHLFDLSSLSGRAGFTAAYSKSGVVYMSICGENENCPPGVGACFGQTRISVGKANKRLRYVDQVLQLVYKDGSPCPSKSGLSYKSVISFVCRPEAGPTNRPMLISLDKQTCTLFFSWHTPLACEQATECSV | Kd [8]: 15.3 nM; koff [8]: 0.044 s⁻¹; kon [8]: 2.76e+06 M⁻¹ s⁻¹; Kd [4]: 11.8 nM; koff [4]: 0.0381 s⁻¹; kon [4]: 3.43e+06 M⁻¹ s⁻¹; Kd [9]: 15.5 nM |

Further lines, the binder ahead of its results:

| Binder | Kd [1] [nM] | koff [1] [s⁻¹] | kon [1] [M⁻¹ s⁻¹] | Kd [2] [nM] | Kd [3] [nM] | koff [3] [s⁻¹] | kon [3] [M⁻¹ s⁻¹] | Kd [5] [nM] | ΔΔG [7] [kcal/mol] | further results |
| --- | --- | --- | --- | --- | --- | --- | --- | --- | --- | --- |
| IGF2R domain 11^WT (receptor, Soluble His6-tagged domain 11 from P. pastoris and/or E. coli; also called wild-type domain 11) MKSNEHDDCQVTNPSTGHLFDLSSLSGRAGFTAAYSEKGLVYMSICGENENCPPGVGACFGQTRISVGKANKRLRYVDQVLQLVYKDGSPCPSKSGLSYKSVISFVCRPEAGPTNRPMLISLDKQTCTLFFSWHTPLACEQATECSV | 46 | 0.23 | 5e+06 | 64 | 46 | 0.23 | 5e+06 | 64 |  | Kd [4]: 35.1 nM; koff [4]: 0.144 s⁻¹; kon [4]: 2.68e+06 M⁻¹ s⁻¹ |
| domain 11^AB5 P1597H (receptor, See m5) MKSNEHDDCQVTNPSTGHLFDLSSLSGRAGFTAAYAKGWGVYMSICGENENCPPGVGACFGQTRISVGKANKRLRYVDQVLQLVYKDGSHCPSKSGLSYKSVISFVCRPEAGPTNRPMLISLDKQTCTLFFSWHTPLACEQATECSV |  |  |  |  |  |  |  |  | -1.23 | Kd [8]: 1.9 nM; koff [8]: 0.007 s⁻¹; kon [8]: 3.68e+06 M⁻¹ s⁻¹; Kd [9]: 2.79 nM |
| Fc-domain 11^AB5-RHH (IGF2-TRAP) (Fc fusion, not shown: a dimerising Fc or GST, RHH is not defined in words; read as Q1569R P1597H S1602H on AB5; IgG2 Fc is stated for the CHO product; also called IgG2 Fc-domain 11^AB5-RHH; Fc-domain 11^RHH) NEHDDCQVTNPSTGHLFDLSSLSGRAGFTAAYAKGWGVYMSICGENENCPPGVGACFGRTRISVGKANKRLRYVDQVLQLVYKDGSHCPSKHGLSYKSVISFVCRPEAGPTNRPMLISLDKQTCTLFFSWHTPLACEQAT |  |  |  |  |  |  |  |  |  | Kd [10]: 0.54 nM; koff [10]: 0.0014 s⁻¹; kon [10]: 2.6e+06 M⁻¹ s⁻¹; Kd (pro-IGF2^1-104): 0.39 nM; koff (pro-IGF2^1-104): 0.0005 s⁻¹; kon (pro-IGF2^1-104): 1.29e+06 M⁻¹ s⁻¹; Kd (pro-IGF2^1-156): 1.13 nM; koff (pro-IGF2^1-156): 0.0003 s⁻¹; kon (pro-IGF2^1-156): 230000 M⁻¹ s⁻¹ |
| Fc-domain 11^I1572A fusion protein (Fc fusion, not shown: human IgG Fc) NEHDDCQVTNPSTGHLFDLSSLSGRAGFTAAYSEKGLVYMSICGENENCPPGVGACFGQTRASVGKANKRLRYVDQVLQLVYKDGSPCPSKSGLSYKSVISFVCRPEAGPTNRPMLISLDKQTCTLFFSWHTPLACEQAT |  |  |  |  |  |  |  |  |  | Kd (pro-IGF2^1-104): 4.41 nM; koff (pro-IGF2^1-104): 0.002 s⁻¹; kon (pro-IGF2^1-104): 520000 M⁻¹ s⁻¹; Kd (pro-IGF2^1-156): 2.71 nM; koff (pro-IGF2^1-156): 0.0008 s⁻¹; kon (pro-IGF2^1-156): 290000 M⁻¹ s⁻¹ |
